Data reported in article PMC8516096.

Key:
Conditions in all cases: Holoenzyme reconstitution: 200 mM Tris-HCl pH 8.0, 30 mM KCl, 10 mM MgCl2, 50 mM NaCl, 1 mM DTT, 1 mM EDTA, BSA 20 ug/ml, 30 C 45 min; DNA binding: 50 mM …
[1] = biological target: T1, RNAP core enzyme (E, alpha2 beta beta' omega);RpoS (sigmaS, sigma38);Crl (Escherichia coli;Salmonella enterica serovar Typhimurium ATCC 14028?;Salmonella enterica serovar Typhimurium ATCC 14028?) (UniProt P0A7Z4+P0A8V2+P0A8T7+P0A800+D0ZVL4+Q7CR52); experiment: competition EMSA with anti-RpoS immunoblot
[2] = biological target: T2, RNAP core enzyme (E, alpha2 beta beta' omega);RpoS (sigmaS, sigma38) (Escherichia coli;Salmonella enterica serovar Typhimurium ATCC 14028?) (UniProt P0A7Z4+P0A8V2+P0A8T7+P0A800+D0ZVL4); experiment: EMSA with anti-RpoS immunoblot
[3] = biological target: T1, RNAP core enzyme (E, alpha2 beta beta' omega);RpoS (sigmaS, sigma38);Crl (Escherichia coli;Salmonella enterica serovar Typhimurium ATCC 14028?;Salmonella enterica serovar Typhimurium ATCC 14028?); experiment: EMSA with anti-RpoS immunoblot
[4] = biological target: T2, RNAP core enzyme (E, alpha2 beta beta' omega);RpoS (sigmaS, sigma38) (Escherichia coli;Salmonella enterica serovar Typhimurium ATCC 14028?); experiment: EMSA
[5] = biological target: RNAP core enzyme (E, alpha2 beta beta' omega) (Escherichia coli) (UniProt P0A7Z4+P0A8V2+P0A8T7+P0A800); experiment: EMSA
[6] = biological target: RNAP core enzyme (E, alpha2 beta beta' omega);RpoD (sigmaD, sigma70) (Escherichia coli;Salmonella enterica serovar Typhimurium ATCC 14028?) (UniProt P0A7Z4+P0A8V2+P0A8T7+P0A800+P0A2E3); experiment: EMSA

Measured: binding

AGTACATATAGTTTCATCAGAAGATTAATCGATGGTGTTATCATTAGGAAGATAAATTTCTTCATATATAACCCAGTCGATGACTACAATTACTTTTTAATAAGATGGCGATGTAAAAACATCGTAACAGTTTATTTAATAAATAATTTTTCAAATTGTAAGTTTTTATGTC (double strand) [PssrA region]
binds: [1] | [2] | [3] | [4] | [5] | [6]
